The record followed here is PMC11189301, “Structure of the human outer kinetochore KMN network complex” (Nature Structural & Molecular Biology, 2024).

The target of one test is T1, MIS12C (WT) (Homo sapiens, UniProt Q6P1K2+Q96IY1+Q9H081+Q9H410).
T1 construct: TEV-cleavable double Strep II (DS) tag (C); made in house; host or cells: High-5 insect cells (baculovirus)
Description: Isothermal titration calorimetry (ITC), peptide titrated into wild-type MIS12C. The class given is binding. As to conditions: 20 °C, 20 mM HEPES pH 7.5, 100 mM NaCl, 1 mM TCEP, syringe Dsn1^92-113 W96A/R97A/R98A 1.0 mM, cell MIS12C(WT) 0.089 mM, listed as Dsn1^92–113 peptide with three Ala residues. On the technique in general: Isothermal titration calorimetry measures the heat released or taken up as one component is titrated into another.

Test [1] addresses T2, MIS12 complex (Mis12, Pmf1, Dsn1, Nsl1), wild type, full length (Homo sapiens, UniProt Q9H081 1-205; Q6P1K2 1-205; Q9H410 1-356; Q96IY1 1-281).
T2 construct: Mis12, subunit of human MIS12C; Pmf1, subunit of human MIS12C; Dsn1, subunit of human MIS12C; Nsl1, subunit of human MIS12C; The DS tag on Pmf1 is TEV cleavable; a cleavage is not described; also called MIS12C (WT); wild-type MIS12C; source: High-5 insect cells (baculovirus), purified (Strep-Tactin, Resource S, Superdex 200); copies: + + +
T2 sequence (looked up) 1: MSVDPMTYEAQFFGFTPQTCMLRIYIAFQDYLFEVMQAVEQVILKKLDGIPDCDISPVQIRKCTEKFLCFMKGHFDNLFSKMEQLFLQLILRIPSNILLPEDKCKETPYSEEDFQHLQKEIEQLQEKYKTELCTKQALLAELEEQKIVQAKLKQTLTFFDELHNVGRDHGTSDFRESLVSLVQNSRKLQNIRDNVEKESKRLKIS
T2 sequence (looked up) 2: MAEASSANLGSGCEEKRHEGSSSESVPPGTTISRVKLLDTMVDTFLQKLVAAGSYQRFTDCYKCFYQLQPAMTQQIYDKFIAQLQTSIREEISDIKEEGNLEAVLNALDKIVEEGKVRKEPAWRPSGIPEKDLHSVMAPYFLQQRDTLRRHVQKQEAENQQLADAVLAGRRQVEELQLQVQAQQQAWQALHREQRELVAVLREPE
T2 sequence (looked up) 3: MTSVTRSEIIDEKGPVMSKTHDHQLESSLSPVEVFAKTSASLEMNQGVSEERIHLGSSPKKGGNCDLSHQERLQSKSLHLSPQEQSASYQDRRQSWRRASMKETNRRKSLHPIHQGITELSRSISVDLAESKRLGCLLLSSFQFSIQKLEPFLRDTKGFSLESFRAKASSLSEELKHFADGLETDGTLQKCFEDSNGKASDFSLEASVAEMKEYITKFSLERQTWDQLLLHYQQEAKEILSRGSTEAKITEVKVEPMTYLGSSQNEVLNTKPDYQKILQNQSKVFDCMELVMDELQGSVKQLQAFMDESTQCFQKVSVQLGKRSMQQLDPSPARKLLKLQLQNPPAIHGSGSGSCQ
T2 sequence (looked up) 4: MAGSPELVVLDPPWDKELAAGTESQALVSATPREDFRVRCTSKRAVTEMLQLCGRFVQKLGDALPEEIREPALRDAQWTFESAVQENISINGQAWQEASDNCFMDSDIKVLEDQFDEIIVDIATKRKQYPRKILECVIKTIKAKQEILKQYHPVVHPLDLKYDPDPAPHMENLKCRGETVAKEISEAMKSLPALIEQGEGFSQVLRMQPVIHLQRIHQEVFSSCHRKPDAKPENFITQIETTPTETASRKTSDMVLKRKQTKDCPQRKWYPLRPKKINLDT
Briefly: SEC; MIS12C or MIS12C^Nsl1ΔC mixed with Knl1 2131–2337 or its mutants at 4 µM each; 20 mM HEPES pH 7.8, 150 mM NaCl, 0.5 mM TCEP; Superose 6; fractions on SDS-PAGE. As to conditions: both partners purified. Background: Size exclusion chromatography separates by hydrodynamic size, large species first.

In test [2] the target is T3, MIS12 complex with Nsl1 truncated at the C terminus (Nsl1 1–264; residues 265–281 deleted) (Homo sapiens, UniProt Q9H081 1-205; Q6P1K2 1-205; Q9H410 1-356; Q96IY1 1-264).
T3 construct: Mis12, subunit of human MIS12C; Pmf1, subunit of human MIS12C; Dsn1, subunit of human MIS12C; Nsl1, subunit of human MIS12C, residues 1-264; also called MIS12C^Nsl1ΔC; Nsl^1–264; source: High-5 insect cells (baculovirus), purified (Strep-Tactin, Resource S, Superdex 200); copies: + + +
T3 sequence (looked up) 1: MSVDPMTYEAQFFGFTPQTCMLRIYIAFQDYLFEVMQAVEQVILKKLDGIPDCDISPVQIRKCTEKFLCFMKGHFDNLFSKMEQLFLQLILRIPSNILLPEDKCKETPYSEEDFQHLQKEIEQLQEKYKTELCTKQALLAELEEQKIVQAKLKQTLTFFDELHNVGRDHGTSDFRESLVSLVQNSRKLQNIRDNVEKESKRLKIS
T3 sequence (looked up) 2: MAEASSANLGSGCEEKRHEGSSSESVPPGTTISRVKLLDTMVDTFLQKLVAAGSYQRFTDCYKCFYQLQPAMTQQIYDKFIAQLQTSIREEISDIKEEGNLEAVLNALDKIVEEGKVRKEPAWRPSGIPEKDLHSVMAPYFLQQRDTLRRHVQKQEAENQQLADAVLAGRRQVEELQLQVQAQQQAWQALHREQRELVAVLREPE
T3 sequence (looked up) 3: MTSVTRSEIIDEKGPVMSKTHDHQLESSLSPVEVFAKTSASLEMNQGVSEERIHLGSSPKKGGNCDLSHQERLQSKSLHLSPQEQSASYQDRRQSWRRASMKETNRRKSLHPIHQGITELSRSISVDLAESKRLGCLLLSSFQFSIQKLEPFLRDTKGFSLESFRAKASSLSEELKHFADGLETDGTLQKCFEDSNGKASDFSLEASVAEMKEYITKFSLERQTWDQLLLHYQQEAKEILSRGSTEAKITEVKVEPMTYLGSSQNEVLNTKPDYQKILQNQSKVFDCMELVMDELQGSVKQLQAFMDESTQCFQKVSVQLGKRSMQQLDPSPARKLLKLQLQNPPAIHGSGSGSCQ
T3 sequence (looked up) 4: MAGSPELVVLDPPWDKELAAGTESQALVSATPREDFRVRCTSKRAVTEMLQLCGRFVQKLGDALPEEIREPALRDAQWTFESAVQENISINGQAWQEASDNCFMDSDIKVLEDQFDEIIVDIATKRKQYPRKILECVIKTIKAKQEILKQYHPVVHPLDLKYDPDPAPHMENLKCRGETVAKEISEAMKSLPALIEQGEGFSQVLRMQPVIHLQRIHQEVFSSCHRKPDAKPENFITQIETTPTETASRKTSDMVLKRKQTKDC
The test is described as above. The conditions noted are these: both partners purified.

On to “RRQSAAAASMKETNRRKSLHPI-AW [Dsn1^92–113 W96A R97A R98A, Dsn1^92–113 peptide with WRR linchpin substituted by three Ala residues]”, for which the “Kd / interaction of mutant Dsn1^92–113 peptide, in words” value on MIS12C (WT) was “completely abolished”.

B1: Knl1 RWD domains, residues 2131–2337, wild type (domain or fragment, H. sapiens, UniProt Q8NG31 2131-2337, looked up)
chain: SLSEWDVVEWSDDQAVFTFVYDTIQLTITFEESVVGFPFLDKRYRKIVDVNFQSLLDEDQAPPSSLLVHKLIFQYVEEKESWKKTCTTQHQLPKMLEEFSLVVHHCRLLGEEIEYLKRWGPNYNLMNIDINNNELRLLFSSSAAFAKFEITLFLSAYYPSVPLPSTIQNHVGNTSQDDIATILSKVPLENNYLKNVVKQIYQDLFQD
notes: Knl1, human, residues 2131-2337 (tandem RWD domains); also called Knl1^2131–2337; wild-type KNL1; source: E. coli BL21 (DE3), purified (Ni-NTA, reverse IMAC, Superdex 75); not shown: His6, N-terminal, cleaved
Turning to B1, the binding result in test [1] and in test [2] was “binds” in each case.
